Laboratory results reported in PMC6509287.

Key:
TOPBP1 [1] = biological target: TOPBP1 (UniProt Q92547); assay: GST pull-down from nuclear extract; settings: reference: wild-type fragment; sites S196
TOPBP1 [2] = biological target: TOPBP1 (UniProt Q92547); assay: HA immunoprecipitation, western blot; settings: reference: wild type

Substance: MDC1 109-330 (from UniProt Q14676) S196A
- binding against the reference (TOPBP1 [1]): lost

Substance: MDC1 (from UniProt Q14676) S168A
- binding against the reference (TOPBP1 [2]; sites S168): lost

Substance: MDC1 (from UniProt Q14676) S196A
- binding against the reference (TOPBP1 [2]; sites S196): lost
